Measurements published in patent US20200317768A1 (published 2020).
Positions count from the first letter of the chain named.

Key:
Assay in all cases: SPR (Biacore); KD of SG1 divided by KD of the variant for this FcgR;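 further: relative to parent M103205H795-SG1 carrying the SG1 human heavy chain constant region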
[1] = biological target: T1, cynomolgus monkey FcγRIIa1 extracellular domain with C-terminal His-tag (cynomolgus monkey)
T1 construct: Expressed in FreeStyle 293 cells and purified; also called cyno FcγRIIa1; cynoFcgRIIa1; not shown: C-terminal His-tag
T1 chain: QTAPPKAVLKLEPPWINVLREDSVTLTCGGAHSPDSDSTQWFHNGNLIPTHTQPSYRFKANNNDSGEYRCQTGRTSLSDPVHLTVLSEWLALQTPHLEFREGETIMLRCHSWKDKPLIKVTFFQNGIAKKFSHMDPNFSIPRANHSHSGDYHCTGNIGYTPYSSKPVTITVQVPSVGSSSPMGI
Description: (§1) Regarding such interactions, KD values were calculated using the following 1:1 binding model described in BIACORE® T100 Software Handbook BR1006-48 Edition AE.
(§2) The behavior of interacting molecules according to the 1:1 binding model on BIACORE® can be described by Equation 1: Req=C·R max/(KD+C)+RI, wherein, Req is a plot of steady-state binding levels to analyte concentration. C is concentration, RI is bulk refractive index contribution in the sample, and Rmax is analyte binding capacity of the surface. When this equation is rearranged, KD can be expressed as Equation 2: KD=C·Rmax/(Req−RI)−C. KD can be calculated by substituting the values of Rmax, RI, and C into Equation 1 or Equation 2. From the current measurement conditions, RI=0, C=2 μmol/L can be used.
(§3) The variants were expressed using M103202L889-SK1 as the light chain and their affinity was analyzed.

[2] = biological target: T2, cynomolgus monkey FcγRIIa2 extracellular domain with C-terminal His-tag (cynomolgus monkey)
T2 construct: Expressed in FreeStyle 293 cells and purified; also called cyno FcγRIIa2; cynoFcgRIIa2; not shown: C-terminal His-tag
T2 chain: T1 chain with P95T, T121A, I127K, A128S, K130N, D135N, R142Q
Description: as §1, §2, §3

[3] = biological target: T3, cynomolgus monkey FcγRIIa3 extracellular domain with C-terminal His-tag (cynomolgus monkey)
T3 construct: Expressed in FreeStyle 293 cells and purified; also called cyno FcγRIIa3; cynoFcgRIIa3; not shown: C-terminal His-tag
T3 chain: T1 chain with P95T, T121A, A128S, H133P, D135N
Description: as §1, §2, §3

[4] = biological target: T4, cynomolgus monkey FcγRIIb extracellular domain with C-terminal His-tag (cynomolgus monkey)
T4 construct: Expressed in FreeStyle 293 cells and purified; also called cyno FcγRIIb; cynoFcγRIIb; not shown: C-terminal His-tag
T4 chain: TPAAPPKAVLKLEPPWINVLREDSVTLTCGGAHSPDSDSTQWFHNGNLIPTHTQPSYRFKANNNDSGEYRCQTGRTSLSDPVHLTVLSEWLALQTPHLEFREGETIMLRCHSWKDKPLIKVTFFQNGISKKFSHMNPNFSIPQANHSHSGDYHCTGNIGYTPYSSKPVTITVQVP
Description: as §1, §2, §3

[5] = biological target: T5, cynomolgus monkey FcγRIIIaS extracellular domain with C-terminal His-tag (cynomolgus monkey, UniProt Q8SPW2 21-206 at identity 1.00))
T5 construct: Expressed in FreeStyle 293 cells and purified; also called cyno FcγRIIIaS; cynoFcγRIIIaS; not shown: C-terminal His-tag
T5 chain: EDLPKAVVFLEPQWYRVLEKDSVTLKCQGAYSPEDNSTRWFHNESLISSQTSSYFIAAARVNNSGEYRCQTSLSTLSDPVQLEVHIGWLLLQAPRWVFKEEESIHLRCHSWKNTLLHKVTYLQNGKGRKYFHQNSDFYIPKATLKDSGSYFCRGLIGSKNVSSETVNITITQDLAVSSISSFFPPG
Description: as §1, §2, §3

[6] = biological target: T6, human FcγRIIaH extracellular domain with C-terminal His-tag (human, UniProt P12318 34-217)
T6 construct: Expressed in FreeStyle 293 cells and purified; also called human FcγRIIa (type H); FcgRIIaH; not shown: C-terminal His-tag
T6 sequence: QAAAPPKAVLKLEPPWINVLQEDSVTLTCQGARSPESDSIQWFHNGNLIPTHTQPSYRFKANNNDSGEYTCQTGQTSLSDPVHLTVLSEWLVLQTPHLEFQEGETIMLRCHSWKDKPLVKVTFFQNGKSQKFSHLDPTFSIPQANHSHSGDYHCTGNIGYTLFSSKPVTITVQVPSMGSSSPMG
Description: as §1, §2, §3

[7] = biological target: T7, human FcγRIIaR extracellular domain with C-terminal His-tag (human, UniProt P12318 34-217)
T7 construct: Expressed in FreeStyle 293 cells and purified; also called human FcγRIIa (type R); FcgRIIaR; not shown: C-terminal His-tag
T7 chain: T6 sequence with H134R
Description: as §1, §2, §3

[8] = biological target: T8, human FcγRIIb extracellular domain with C-terminal His-tag (human, UniProt P31994 43-217)
T8 construct: Expressed in FreeStyle 293 cells and purified; also called humanFcgRIIb; not shown: C-terminal His-tag
T8 sequence: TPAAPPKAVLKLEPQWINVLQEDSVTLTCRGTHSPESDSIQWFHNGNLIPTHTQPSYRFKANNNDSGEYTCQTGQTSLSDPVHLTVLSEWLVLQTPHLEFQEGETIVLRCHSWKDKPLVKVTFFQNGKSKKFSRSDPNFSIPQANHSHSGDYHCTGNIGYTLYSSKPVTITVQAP
Description: as §1, §2, §3

[9] = biological target: T9, human FcγRIIIaV extracellular domain with C-terminal His-tag (human, UniProt P08637 17-208)
T9 construct: Expressed in FreeStyle 293 cells and purified; also called FcgRIIIaV; not shown: C-terminal His-tag
Description: as §1, §2, §3

T9 sequence (P08637 17-208 F176V): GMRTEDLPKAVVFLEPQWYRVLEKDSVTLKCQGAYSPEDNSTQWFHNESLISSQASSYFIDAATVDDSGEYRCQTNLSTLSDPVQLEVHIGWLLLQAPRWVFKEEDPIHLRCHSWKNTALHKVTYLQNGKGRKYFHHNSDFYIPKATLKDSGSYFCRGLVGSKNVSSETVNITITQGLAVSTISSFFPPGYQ

B1: M103205H795-MY205 / M103202L889-SK1 (antibody, human IgG1, kappa)
heavy: QVTLKESGPVLVKPTETLTLTCTVSGIDLSHDDISWVRQAPGKGLEWVGIISYAGSTYYASWAKGRLTISKDTSKNQVVLTMTNMDPVDTATYYCARGVPAYSHGGDLWGQGTLVTVSSASTKGPSVFPLAPSSKSTSGGTAALGCLVKDYFPEPVTVSWNSGALTSGVHTFPAVLQSSGLYSLSSVVTVPSSSLGTQTYICNVNHKPSNTKVDKKVEPKSCDKTHTCPPCPAPELLNGPSVFLFPPKPKDTLMISRTPEVTCVVVDVSDEDPEVKFNWYVDGVEVHNAKTKPREELYNSTYRVVSVLTVLHQDWLNGKEYKCKVSNKALPKPIEKTISKAKGQPREPQVYTLPPSREEMTKNQVSLTCLVKGFYPSDIAVEWESNGQPENNYKTTPPVLDSDGSFFLYSKLTVDKSRWQQGNVFSCSVMHEALHNHYTQKSLSLSP
light: DIVMTQSPATLSLSPGERATLSCTSSQSVYHANWLSWFQQKPGQPPKLLIYWASTLAYGVPSRFSGSGSGTDFTLTISSLQPEDAATYYCAGGYGGGRYAFGQGTKVEIKRTVAAPSVFIFPPSDEQLKSGTASVVCLLNNFYPREAKVQWKVDNALQSGNSQESVTEQDSKDSTYSLSSTLTLSKADYEKHKVYACEVTHQGLSSPVTKSFNRGEC
notes: Fc variant of M103205H795-SG1, expressed with M103202L889-SK1 as light chain; also called MS1032LO06-MY205
KD fold (SG1 = 1) [1]: 3.5 fold | KD fold (SG1 = 1) [2]: 4.6 fold | KD fold (SG1 = 1) [3]: 5.7 fold | KD fold (SG1 = 1) [4]: 7.2 fold | KD fold (SG1 = 1) [5]: 0.06 fold | KD fold (SG1 = 1) [6]: 1.5 fold | KD fold (SG1 = 1) [7]: 0.8 fold | KD fold (SG1 = 1) [8]: 8 fold | KD fold (SG1 = 1) [9]: 0.06 fold

B2: M103205H795-MY206 / M103202L889-SK1 (antibody, human IgG1, kappa)
heavy: B1 heavy with S241V
light: B1 light
notes: Fc variant of M103205H795-SG1, expressed with M103202L889-SK1 as light chain
KD fold (SG1 = 1) [1]: 4 fold | KD fold (SG1 = 1) [2]: 6.5 fold | KD fold (SG1 = 1) [3]: 5.7 fold | KD fold (SG1 = 1) [4]: 4 fold | KD fold (SG1 = 1) [5]: 0.11 fold | KD fold (SG1 = 1) [6]: 0.7 fold | KD fold (SG1 = 1) [7]: 0.8 fold | KD fold (SG1 = 1) [8]: 5.1 fold | KD fold (SG1 = 1) [9]: 0.1 fold

B3: M103205H795-MY288 / M103202L889-SK1 (antibody, human IgG1, kappa)
heavy: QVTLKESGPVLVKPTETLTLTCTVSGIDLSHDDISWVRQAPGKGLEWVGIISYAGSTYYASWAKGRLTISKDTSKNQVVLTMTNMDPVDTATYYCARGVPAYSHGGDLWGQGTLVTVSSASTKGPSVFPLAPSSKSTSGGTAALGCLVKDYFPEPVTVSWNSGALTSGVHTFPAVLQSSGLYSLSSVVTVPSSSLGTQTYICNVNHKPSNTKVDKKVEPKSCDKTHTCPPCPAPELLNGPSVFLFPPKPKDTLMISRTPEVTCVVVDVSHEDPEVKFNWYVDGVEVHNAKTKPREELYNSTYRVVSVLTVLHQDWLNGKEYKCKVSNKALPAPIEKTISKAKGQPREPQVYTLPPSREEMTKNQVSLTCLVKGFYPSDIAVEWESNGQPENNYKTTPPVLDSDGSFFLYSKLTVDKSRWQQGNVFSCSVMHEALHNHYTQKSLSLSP
light: B1 light
notes: as for B2
KD fold (SG1 = 1) [1]: 2.1 fold | KD fold (SG1 = 1) [2]: 2.6 fold | KD fold (SG1 = 1) [3]: 3.6 fold | KD fold (SG1 = 1) [4]: 3.5 fold | KD fold (SG1 = 1) [5]: 0.08 fold | KD fold (SG1 = 1) [6]: 0.5 fold | KD fold (SG1 = 1) [7]: 0.1 fold | KD fold (SG1 = 1) [8]: 0.9 fold | KD fold (SG1 = 1) [9]: 0.01 fold

B4: M103205H795-MY208 / M103202L889-SK1 (antibody, human IgG1, kappa)
heavy: B1 heavy with K332A
light: B1 light
notes: as for B2
KD fold (SG1 = 1) [1]: 2.7 fold | KD fold (SG1 = 1) [2]: 5.4 fold | KD fold (SG1 = 1) [3]: 2.5 fold | KD fold (SG1 = 1) [4]: 2.8 fold | KD fold (SG1 = 1) [5]: 0.18 fold | KD fold (SG1 = 1) [6]: 0.8 fold | KD fold (SG1 = 1) [7]: 0.5 fold | KD fold (SG1 = 1) [8]: 4.2 fold | KD fold (SG1 = 1) [9]: 0.08 fold

B5: M103205H795-MY207 / M103202L889-SK1 (antibody, human IgG1, kappa)
heavy: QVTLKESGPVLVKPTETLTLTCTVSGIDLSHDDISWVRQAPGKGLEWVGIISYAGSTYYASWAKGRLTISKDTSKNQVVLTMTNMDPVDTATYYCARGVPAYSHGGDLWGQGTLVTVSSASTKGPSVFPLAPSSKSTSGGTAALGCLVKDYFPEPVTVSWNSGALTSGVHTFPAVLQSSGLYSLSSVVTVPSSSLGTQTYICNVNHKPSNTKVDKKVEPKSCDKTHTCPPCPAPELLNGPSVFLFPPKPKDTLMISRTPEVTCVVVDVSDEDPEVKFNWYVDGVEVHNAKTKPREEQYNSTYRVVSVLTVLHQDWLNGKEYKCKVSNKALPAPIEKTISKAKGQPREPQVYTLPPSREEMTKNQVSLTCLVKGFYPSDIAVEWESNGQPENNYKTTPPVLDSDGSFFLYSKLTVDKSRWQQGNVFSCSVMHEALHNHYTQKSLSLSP
light: B1 light
notes: as for B2
KD fold (SG1 = 1) [1]: 2.1 fold | KD fold (SG1 = 1) [2]: 8.6 fold | KD fold (SG1 = 1) [3]: 2.5 fold | KD fold (SG1 = 1) [4]: 2.2 fold | KD fold (SG1 = 1) [5]: 0.08 fold | KD fold (SG1 = 1) [6]: 0.5 fold | KD fold (SG1 = 1) [7]: 0.4 fold | KD fold (SG1 = 1) [8]: 2.9 fold | KD fold (SG1 = 1) [9]: 0.1 fold

B6: M103205H795-MY212 / M103202L889-SK1 (antibody, human IgG1, kappa)
heavy: B1 heavy with S241V, K328T
light: B1 light
notes: as for B2
KD fold (SG1 = 1) [1]: 5.7 fold | KD fold (SG1 = 1) [2]: 9.6 fold | KD fold (SG1 = 1) [3]: 5.9 fold | KD fold (SG1 = 1) [4]: 4.9 fold | KD fold (SG1 = 1) [5]: 0.14 fold | KD fold (SG1 = 1) [6]: 0.9 fold | KD fold (SG1 = 1) [7]: 0.8 fold | KD fold (SG1 = 1) [8]: 7.3 fold | KD fold (SG1 = 1) [9]: 0.12 fold

B7: M103205H795-MY210 / M103202L889-SK1 (antibody, human IgG1, kappa)
heavy: B1 heavy with L297Q, K328T
light: B1 light
notes: as for B2
KD fold (SG1 = 1) [1]: 3.4 fold | KD fold (SG1 = 1) [2]: 8.1 fold | KD fold (SG1 = 1) [3]: 7.4 fold | KD fold (SG1 = 1) [4]: 6.4 fold | KD fold (SG1 = 1) [5]: 0.15 fold | KD fold (SG1 = 1) [6]: 0.6 fold | KD fold (SG1 = 1) [7]: 0.8 fold | KD fold (SG1 = 1) [8]: 4.7 fold | KD fold (SG1 = 1) [9]: 0.05 fold

B8: M103205H795-MY211 / M103202L889-SK1 (antibody, human IgG1, kappa)
heavy: B1 heavy with S241V, L297Q, K328T
light: B1 light
notes: as for B2
KD fold (SG1 = 1) [1]: 4.3 fold | KD fold (SG1 = 1) [2]: 3.8 fold | KD fold (SG1 = 1) [3]: 6.3 fold | KD fold (SG1 = 1) [4]: 3.8 fold | KD fold (SG1 = 1) [5]: 0.12 fold | KD fold (SG1 = 1) [6]: 0.6 fold | KD fold (SG1 = 1) [7]: 0.8 fold | KD fold (SG1 = 1) [8]: 5.6 fold | KD fold (SG1 = 1) [9]: 0.17 fold
